# Results reported in paper PMC3366968, “Functional Characterization of a First Avian Cytochrome P450 of the CYP2D Subfamily (CYP2D49)” (PLoS ONE, 2012).
# B1: CYP2D49 (Gallus gallus) (protein)
# chain: MTLLLWLSSWSNISVLGVFLTVFTILVDFMKRRKKWSRYPPGPMPLPFVGTMPYVNYYNPHLSFEKFRKKFGNIFSLQNCWTNVVVLNGYKTVKEALVNKSEDFADRPYMPVYEHLGYGHKSEGLVLARYGHLWKELRKFTLTTLRNFGMGKKSLEERVTEEAGFLCSAISSEGGHPFDPRFLVNNAVCNVICTITYGERFDYGDKTFKKLLTLFENSLNEEAGFLPQLLNVAPVLLRIPGLPQKIFPCQKAYVDFTQMLIDKHKETWNPAYIRDFTDAFLKEMAKGKEAEENGFNKSNLTLVTADLLVAGSETTATTLRWAFLFMLLYPEIQSKVHKEIDKVIGRNRPPTMADQVNMPYTNAVIHEVQRFGDVVPMGLPHMTYRDTELQGFFIPKGTTIITNLTSVLKDETAWKKPNEFYPEHFLNENGQFVRPEAFLPFSAGRRACLGEQLTRMELFIFFTTLMQKFTFVFPEDQPRPREDSHFAFTNSPHPYQLRAVPR
# notes: full-length 502-residue ORF, N-terminal ompA leader (21 aa) plus Leu-Glu spacer, Myc-His-tagged fusion, about 55 kDa, expressed in E. coli DH5alpha, purified by Ni-NTA
# Substrate: CCc1cccc2cc(C(O)CNC(C)(C)C)oc12
# Test: purified protein
# Assay type: biochemical, Gallus gallus
# Settings: 2-200 µM bufuralol, NADPH, NADPH-P450 reductase, cytochrome b5, liposome, 10 mM MgCl2, 100 mM potassium phosphate pH 7.4, 37°C
protein,measurement,value
B1,Km,3.948 ± 0.232 µM
